Results reported in patent publication EP2785382B1 (IBC Pharmaceuticals, Inc., dated 2019).

How the values were obtained:
IGF-1R on cells (human) [1] = biological target: IGF-1R on cells (human) (UniProt P08069); experiment: 125I-IGF-1 binding to MCF-7L cells with antibody at 100 ng/mL
IGF-1R on cells (human) [2] = biological target: IGF-1R on cells (human) (UniProt P08069); experiment: cell-based or functional assay
IGF-1R on cells (human) [3] = biological target: IGF-1R on cells (human) (UniProt P08069); experiment: 125I-IGF-1 binding to MCF-7L cells with antibody at 1000 ng/mL
[4] = biological target: recombinant human IGF-1R (R&D Systems, Catalog # 391-GR) (human) (UniProt P08069); experiment: ELISA on immobilized rhIGF-1R (not shown); cR1 from clones 709.2D2 and 710.2G2, same affinity
[5] = biological target: T1, recombinant human IGF-1R (R&D Systems, Catalog # 391-GR) (human, UniProt P08069 31-935); experiment: rhIGF-1R on polystyrene beads (not shown)
T1 construct: extracellular domain; immobilized on ELISA plates or polystyrene beads; also called rhIGF-1R; IGF-1R-coated beads

IGF-1R on cells (human) [6] = biological target: IGF-1R on cells (human) (UniProt P08069); experiment: flow cytometry (FACScan), DU 145 cells
IGF-1R on cells (human) [7] = biological target: IGF-1R on cells (human) (UniProt P08069); experiment: flow cytometry (FACScan), ME-180 cells
IGF-1R on cells (human) [8] = biological target: IGF-1R on cells (human) (UniProt P08069); experiment: flow cytometry (FACScan), MCF-7 cells

Sequence of IGF-1R on cells (human) (P08069 31-1367): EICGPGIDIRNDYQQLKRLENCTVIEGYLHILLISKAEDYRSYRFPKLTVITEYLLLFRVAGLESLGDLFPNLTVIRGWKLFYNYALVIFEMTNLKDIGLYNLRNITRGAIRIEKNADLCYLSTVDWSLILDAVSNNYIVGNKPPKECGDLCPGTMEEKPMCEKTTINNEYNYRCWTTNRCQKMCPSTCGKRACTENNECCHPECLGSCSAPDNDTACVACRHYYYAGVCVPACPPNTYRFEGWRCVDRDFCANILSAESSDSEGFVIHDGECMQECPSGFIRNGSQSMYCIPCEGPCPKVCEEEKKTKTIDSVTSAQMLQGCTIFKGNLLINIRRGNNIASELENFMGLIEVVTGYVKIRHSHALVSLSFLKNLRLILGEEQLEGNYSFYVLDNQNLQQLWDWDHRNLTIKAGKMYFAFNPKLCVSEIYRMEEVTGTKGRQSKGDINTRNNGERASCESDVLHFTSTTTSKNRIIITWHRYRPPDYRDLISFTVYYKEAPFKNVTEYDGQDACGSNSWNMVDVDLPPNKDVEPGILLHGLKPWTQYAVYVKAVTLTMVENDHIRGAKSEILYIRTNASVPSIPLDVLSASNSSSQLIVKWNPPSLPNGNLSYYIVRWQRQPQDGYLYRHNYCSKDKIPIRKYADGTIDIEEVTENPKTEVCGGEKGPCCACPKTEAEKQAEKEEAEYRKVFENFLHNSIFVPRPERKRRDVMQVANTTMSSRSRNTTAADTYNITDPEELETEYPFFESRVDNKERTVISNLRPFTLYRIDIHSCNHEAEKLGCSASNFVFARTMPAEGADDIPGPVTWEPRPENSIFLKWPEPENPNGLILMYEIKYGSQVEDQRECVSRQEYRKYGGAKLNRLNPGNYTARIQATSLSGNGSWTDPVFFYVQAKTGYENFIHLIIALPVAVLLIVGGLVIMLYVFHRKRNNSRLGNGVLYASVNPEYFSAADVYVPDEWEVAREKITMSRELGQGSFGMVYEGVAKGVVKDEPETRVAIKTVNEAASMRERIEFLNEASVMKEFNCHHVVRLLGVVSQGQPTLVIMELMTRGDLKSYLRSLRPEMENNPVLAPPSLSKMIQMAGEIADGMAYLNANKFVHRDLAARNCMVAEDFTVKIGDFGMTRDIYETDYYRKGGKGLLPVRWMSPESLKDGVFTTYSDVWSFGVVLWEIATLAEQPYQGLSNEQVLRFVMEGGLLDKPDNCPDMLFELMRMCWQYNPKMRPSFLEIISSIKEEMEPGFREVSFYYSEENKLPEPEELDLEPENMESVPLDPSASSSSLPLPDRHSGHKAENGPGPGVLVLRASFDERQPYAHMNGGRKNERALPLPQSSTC
T1 sequence (P08069 31-935): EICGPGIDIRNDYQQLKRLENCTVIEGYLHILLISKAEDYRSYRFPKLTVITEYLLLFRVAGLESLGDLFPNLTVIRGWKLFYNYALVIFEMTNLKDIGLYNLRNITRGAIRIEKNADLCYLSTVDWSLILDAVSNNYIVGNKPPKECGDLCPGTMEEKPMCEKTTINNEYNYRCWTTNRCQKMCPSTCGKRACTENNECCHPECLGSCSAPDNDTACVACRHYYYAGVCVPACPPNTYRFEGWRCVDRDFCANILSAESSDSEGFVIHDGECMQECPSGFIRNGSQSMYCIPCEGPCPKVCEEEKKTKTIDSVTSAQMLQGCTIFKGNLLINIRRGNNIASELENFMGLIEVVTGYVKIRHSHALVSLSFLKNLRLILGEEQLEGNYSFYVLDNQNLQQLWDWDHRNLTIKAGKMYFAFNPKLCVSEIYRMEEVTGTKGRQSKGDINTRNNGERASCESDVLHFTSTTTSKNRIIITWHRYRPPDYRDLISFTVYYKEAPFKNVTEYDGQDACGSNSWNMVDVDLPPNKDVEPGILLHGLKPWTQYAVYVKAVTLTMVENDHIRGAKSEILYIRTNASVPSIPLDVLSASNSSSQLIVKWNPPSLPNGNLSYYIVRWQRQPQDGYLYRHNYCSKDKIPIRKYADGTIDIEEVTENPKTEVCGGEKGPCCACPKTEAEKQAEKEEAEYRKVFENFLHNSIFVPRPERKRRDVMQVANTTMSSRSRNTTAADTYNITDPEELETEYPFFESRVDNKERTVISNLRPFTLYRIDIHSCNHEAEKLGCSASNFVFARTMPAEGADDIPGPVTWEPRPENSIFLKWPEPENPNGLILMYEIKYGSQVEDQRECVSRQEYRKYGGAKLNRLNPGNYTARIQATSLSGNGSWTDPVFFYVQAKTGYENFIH
Sequence of recombinant human IGF-1R (R&D Systems, Catalog # 391-GR) (human) (P08069 31-935): as above

How did the % binding of 125I-IGF-1 to MCF-7L (IGF-1R on cells (human) [1]) turn out when MAB391 (antibody) was run?
The % binding of 125I-IGF-1 to MCF-7L was 54%.

What about the maximum growth inhibition, 786-O cells (8 nM), serum-free, IGF-1 100 ng/mL, MTS (IGF-1R on cells (human) [2]) of the same molecule?
Its maximum growth inhibition, 786-O cells (8 nM), serum-free, IGF-1 100 ng/mL, MTS is 34%.

And the maximum growth inhibition, ACHN cells (200 nM), serum-free, IGF-1 100 ng/mL, MTS (IGF-1R on cells (human) [2])?
Its maximum growth inhibition, ACHN cells (200 nM), serum-free, IGF-1 100 ng/mL, MTS is 48%.

What about the maximum growth inhibition, Caki-2 cells (8 nM), serum-free, IGF-1 100 ng/mL, MTS (IGF-1R on cells (human) [2]) of the same molecule?
The maximum growth inhibition, Caki-2 cells (8 nM), serum-free, IGF-1 100 ng/mL, MTS was 50%.

And the % binding of 125I-IGF-1 to MCF-7L (IGF-1R on cells (human) [3])?
The % binding of 125I-IGF-1 to MCF-7L was 38%.

B1: cR1 (antibody, from another filing, V domains shown)
VH: EVKLVESGGGLVQPGGSLKLSCATSGFTFSDYYMYWVRQTPEKRLEWVAYITNYGGSTYYPDTVKGRFTISRDNAKNTLYLQMSRLRSEDTAMYFCARQSNYDYDGWFAYWGQGTTVTVSS
VL: DIVMTQSHKFMSTSVGDRVSITCKASQEVGTAVAWYQQKPGQSPKLLIYWASTRHTGVPDRFTGSGSGTDFTLTISNVQSEDLADYFCQQYSNYPLTFGAGAKLELKR
How did the Kd [4] turn out when B1 was run?
The Kd was 0.1 nM.

B2: hR1 (antibody, IgG1, V domains shown)
VH: QVQLQESGGGVVQPGRSLRLSCSASGFTFSDYYMYWVRQAPGKGLEWVAYITNYGGSTYYPDTVKGRFTISRDNAKNTLFLQMDSLRPEDTGVYFCARQSNYDYDGWFAYWGQGTPVTVSS
VL: DIQLTQSPSSLSASVGDRVTITCKASQEVGTAVAWYQQKPGKAPKLLIYWASTRHTGVPSRFSGSGSGTDFTFTISSLQPEDIATYFCQQYSNYPLTFGQGTKVEIKR
notes: also called humanized anti-IGF-1R; hR1 IgG
What does the source list for B2?
binding result [5]: binds; concentration giving complete receptor down-regulation (IGF-1R on cells (human) [2]): 10 nM; maximum growth inhibition, 786-O cells (8 nM), serum-free, IGF-1 100 ng/mL, MTS (IGF-1R on cells (human) [2]): 26%; maximum growth inhibition, ACHN cells (200 nM), serum-free, IGF-1 100 ng/mL, MTS (IGF-1R on cells (human) [2]): 3%; maximum growth inhibition, Caki-2 cells (8 nM), serum-free, IGF-1 100 ng/mL, MTS (IGF-1R on cells (human) [2]): 33%; % Positive (IGF-1R on cells (human) [6]): 30.4%; MFI (IGF-1R on cells (human) [6]): 5.33; % Positive (IGF-1R on cells (human) [7]): 10.7%; MFI (IGF-1R on cells (human) [7]): 3.65; % Positive (IGF-1R on cells (human) [8]): 89.2%; MFI (IGF-1R on cells (human) [8]): 9.93

B3: 1R-E1 (bispecific antibody, part only; not given: hRS7 Fab-DDD2 module, not shown: a dimerising Fc or GST)
heavy (part 1 of 2): B2 VH
heavy (part 2 of 2): GSGGGGSGGCGQIEYLAKQIVDNAIQQAGC
light: B2 VL
With B3 as the molecule, how does the concentration substantially reducing the level of IGF-1R in MCF-7, DU-145 and LnCap (IGF-1R on cells (human) [2]) read?
Its concentration substantially reducing the level of IGF-1R in MCF-7, DU-145 and LnCap is 0.1 nM.

B4: Hex-hR1 (antibody, V domains shown, not shown: a dimerising Fc or GST; small tags and cut ends)
VH: B2 VH
VL: DIQLTQSPSSLSASVGDRVTITCKASQEVGTAVAWYQQKPGKAPKLLIYWASTRHTGVPSRFSGSGSGTDFTFTISSLQPEDIATYFCQQYSNYPLTFGQGTKVEIK
modifications: DNL complex: one IgG-AD2 and four Fab-DDD2, disulfide-locked through AD2 and DDD2. All six Fabs carry the same hR1 VH/VK [CUT]
How did the maximum growth inhibition, 786-O cells (8 nM), serum-free, IGF-1 100 ng/mL, MTS (IGF-1R on cells (human) [2]) turn out when B4 was run?
Its maximum growth inhibition, 786-O cells (8 nM), serum-free, IGF-1 100 ng/mL, MTS is 35%.

What about the maximum growth inhibition, ACHN cells (200 nM), serum-free, IGF-1 100 ng/mL, MTS (IGF-1R on cells (human) [2]) of the same molecule?
The maximum growth inhibition, ACHN cells (200 nM), serum-free, IGF-1 100 ng/mL, MTS was 48%.

And the maximum growth inhibition, Caki-2 cells (8 nM), serum-free, IGF-1 100 ng/mL, MTS (IGF-1R on cells (human) [2])?
Its maximum growth inhibition, Caki-2 cells (8 nM), serum-free, IGF-1 100 ng/mL, MTS is 43%.
